Reference: the supplement of paper PMC9170038

The sequences below were run on MS2 coat protein (assay: apparent KD of MS2 coat protein, switch OFF state (with FMN for OFF switches, without FMN for ON switches); designed switch direction (-1 OFF switch, 1 ON switch): 1; higher = weaker reporter binding). Details: FMN input: 0 or 200 uM; Eterna round: R93 (includes R88 designs).
Procedure, shortened: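 On-chip transcription from Illumina sequencing clusters produced the designed RNA switches. These were titrated with SNAP-549-labelled MS2 coat protein (twofold steps, 0.7 or 1.5 nM to 3 µM) in 100 mM Tris-HCl pH 7.5, 80 mM KCl, 4 mM MgCl2, with or without constant ligand. The apparent KD given is the per-design median of normalised cluster binding-curve fits.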
For “GGGAAGAAGAGAGAGGAUAUCCAAAGGAAAACAUGAGGAUCACCCAUGUAAAAGGAAGGAAAUUGGGAGAAGGCUCAAAAGAGGA [salish99-ss2-025]”, the “apparent KD of MS2 coat protein” value was 51.6 nM.
In the case of “AAAACACAUGAGGAUCACCCAUGUAGAAAUAUGGGAGGAUAUACGAAAACGAAAGACAAAGUAGAAGGCCUAAAAG [saturn 4]”, the “apparent KD of MS2 coat protein” value is reported as 153 nM.
In the case of “AAUACACAUGAGGAUCACCCAUGUAGAAACAAGUCAGGAUAUCCGAUCCACAUGUGAUAAGGAGAAGGGACAAUAA [SS 1 Tesla 7]”, the “apparent KD of MS2 coat protein” value is reported as 163 nM.
For “UCCUUACAUGAGGAUCACCCAUGUCGCAGGAAUCAAGGAUAUGGGACCGCAAGACGGAAACCAGAAGGUGAAAUAU [Gedizala]”, the “apparent KD of MS2 coat protein” value was 287 nM.
In the case of “UUUAAUUGCGGGCAGGAUAUGUAUUAAAAUACAUGAGGAUCACCCAUGUGCGGGUGUAACACCCGACAGAAGGGCCAAUCGCGAC [Bearisan]”, the “apparent KD of MS2 coat protein” value is reported as 300 nM.
With “AAGAAAGUUUACGAGGAUAUGUUCCGCAGUACAUGAGGAUCACCCAUGUGAACACGAAGGGCGACGCAGAAGGCGUGAGCAAUGA [Orononed]” the “apparent KD of MS2 coat protein” value was 89.2 nM.
For “AAUAUAUUAAGUGAGGAUAUCGAGAAAAAAACAUGAGGAUCACCCAUGUGGGAAACAUGGUAGGGUGAGAAGGUACUUAAUAUAU [Samwise Clockwise 22 - Jieux - Same State 2]”, the “apparent KD of MS2 coat protein” value was 399 nM.
For “GUGAAGGAGAGAGAGGAUAUCCAAAGGAAAACAUGAGGAUCACCCAUGUAGAAGGUAGGAAAUUGGGAGAAGGCUCAAGAGAGAG [salish99-ss2-114]”, the “apparent KD of MS2 coat protein” value was 39.5 nM.
For “AUAAAAUAAAAGGAGGAUAUCCUAAAUAAAACAUGAGGAUCACCCAUGUAAAAAAUAAUAAAAUGGGAGAAGGCCUAAAAUAAAU [SS2 M 25]”, the “apparent KD of MS2 coat protein” value was 35 nM.
With “AUAAAAUAAAUUGAGGAUAUCUAUAAUAAAACAUGAGGAUCACCCAUGUUUAAACAAAGAUCAUGGGAGAAGGCAGAAAAUAAAU [SS2 M 37]” the “apparent KD of MS2 coat protein” value was 20.6 nM.
With “GACUGACAUGAGGAUCACCCAUGUAUUCAAACAUGAGGAUAUAUGACACGUCAUCGACGGAUAGAAGGCAUAGAUG [JR_SS001_Sub1210]” the “apparent KD of MS2 coat protein” value was 205 nM.
For “GAAAAACAUGAGGAUCACCCAUGUCAAUAUAUGGGAGGAUAUACAAAGACGAAAGUCAAAGUAGAAGGCCUAAAAG”, the “apparent KD of MS2 coat protein” value was 66.4 nM.
For “AGAAAUAAAACACAGGAUAUCCAAAAGAAAACAUGAGGAUCACCCAUGUAAAAUAAAAUAAAAUGGGAGAAGGGUGAAAAUAAGA [Mat - Same State 2 - JL mod - D5]”, the “apparent KD of MS2 coat protein” value was 50.2 nM.
“AACAAUCUAUCUGAGGAUAUCAUGAAAAAAACAUGAGGAUCACCCAUGUGCAGGAAAACUGCAUAUGAGAAGGCAGAUAGAUUGA [SS2: 1101]” was tested, and the “apparent KD of MS2 coat protein” value was 913 nM.
“CGGAGACAUGAGGAUCACCCAUGUGAGAAGAGGCGAGGAUAUCGAAAGAAAGAAGAGAAACGAGAAGGCGCGAGCU [salish99-SS1-072]” was tested, and the “apparent KD of MS2 coat protein” value was 27.6 nM.
For “AUAAAACAUGAGGAUCACCCAUGUAGAAAUAUGGGAGGAUAUACGAAGACGAAAGUCAAAGUAGAAGGCCUAAAAG [Mat - Same State 1 - Meechl mod - D115]”, the “apparent KD of MS2 coat protein” value was 83.6 nM.
With “AGAAAUAAAAAUGAGGAUAUGCAAAAGAAAACAUGAGGAUCACCCAUGUAAAAGAAAAUAAAUGGGCAGAAGGCAUGAAAUAAAGA [Helter Skelter 3]” the “apparent KD of MS2 coat protein” value was 75.1 nM.
With “AACUAACAUGAGGAUCACCCAUGUUACAGCAGUUGAGGAUAUGUGGGUGAAAAUAGCAUGGCAGAAGGCGAGUGUA [SameState1 Malc#24]” the “apparent KD of MS2 coat protein” value was 127 nM.
In the case of “CUGGACAUAGUACAGGAUAUAUGAAUAGUCACAUGAGGAUCACCCAUGUCCAUUUAUAUGGGCACAUAGAAGGGUGGUAGUUAAG [Mat - Same state - Malcolm Mod - D139]”, the “apparent KD of MS2 coat protein” value is reported as 41.2 nM.
“GAAAAACAUGAGGAUCACCCAUGUGAAAAUAUGGGAGGAUAUACGAAGACGAAAGUCAAAGUAGAAGGCCUAAAAG [Garnet 31]” was tested, and the “apparent KD of MS2 coat protein” value was 87.9 nM.
In the case of “AAAAAACAUGAGGAUCACCCAUGUAGAAACAUGGGAGGAUAUACAAAGACGAAAGUCAAAGUAGAAGGCCUAAAGA [Mat - Same State 1 - Mod - D162]”, the “apparent KD of MS2 coat protein” value is reported as 182 nM.
“GGAAAACAUGAGGAUCACCCAUGUAGAAAUAUGGGAGGAUAUACAAAGACGAAAGUCAAAGUAGAAGGCCUAAAAG [salish99-SS1-084]” was tested, and the “apparent KD of MS2 coat protein” value was 60.2 nM.
With “AACAAACAUGAGGAUCACCCAUGUCAAACAAACCAAGGAUAUGGGAAGCGAGACUCGCUACCAGAAGGUGGAAAUU [Edtigebe]” the “apparent KD of MS2 coat protein” value was 176 nM.
For “GAAGAACAUGAGGAUCACCCAUGUGUAGAAGCAUGAGGAUAUGUAAGUCAAAGAAAAACGAUAGAAGGCAUGGAGA [JR_SS001_Sub1714]”, the “apparent KD of MS2 coat protein” value was 119 nM.
“CGGAAGGAGAGAGAGGAUAUCCAAAGGAAAACAUGAGGAUCACCCAUGUAGAAGGUAGGAAAUUGGGAGAAGGCUCAAGAGAGAG [salish99-ss2-119(!)]” was tested, and the “apparent KD of MS2 coat protein” value was 51.4 nM.
For “AAAAACAUGGUGCAGGAUAUAUUAAUAGUCACAUGAGGAUCACCCAUGUUCAUUUAUAUGAACGAGUAGAAGGGCGAUGAAAAAA [Mat - Same state - Malcolm Mod - D111]”, the “apparent KD of MS2 coat protein” value was 410 nM.
“AAAAAACAUGAGGAUCACCCAUGUAGAAACAUGGGAGGAUAUACGAAGACGAAAGUCAAAGUAGAAGGCCUAAGAG [Garnet 89]” was tested, and the “apparent KD of MS2 coat protein” value was 592 nM.
For “AAAUAAAUGACUAAGGAUAUAUCGAAGAAAACAUGAGGAUCACCCAUGUGAUAAUAAAAAGGGUGGUAGAAGGUAGUCAACAAAC [Mod 4 of Pariah 4 by Hyphema in Round 1]”, the “apparent KD of MS2 coat protein” value was 88 nM.
With “AAAUAGUGCAUUAAGGAUAUGUCGCAUGACACAUGAGGAUCACCCAUGUGGUAACACAGAGGGUGGCAGAAGGUAGUGUGCAAAC [Mod 3 of Pariah 6 (Round1) by Hyphema]” the “apparent KD of MS2 coat protein” value was 15.1 nM.
With “AAAACUACAGAUCAGGAUAUGUUUAGGUAAACAUGAGGAUCACCCAUGUGCACCUGAUAAACAACACAGAAGGGAUAACGUGGGA [Geerreleon]” the “apparent KD of MS2 coat protein” value was 25.7 nM.
With “GAAAAACAUGAGGAUCACCCAUGUAGAAAUAUGGGAGGAUAUACGAAGACGAAAGUCAAAGUAGAAGGCCUAAGAA [Mat - Same State 1 - Eli mod - D109]” the “apparent KD of MS2 coat protein” value was 87.8 nM.
In the case of “AUAAGACAUGAGGAUCACCCAUGUAUAAGAGCAUGAGGAUAUAUAAAAAGAAAAAGGAGAAUAGAAGGCAUAGUUG [JR_SS001_Sub1221]”, the “apparent KD of MS2 coat protein” value is reported as 107 nM.
“AAUAAAAAUAGUCAGGAUAUGAGAACUAAGACAUGAGGAUCACCCAUGUAAACAGAACAAGUAAAUCAGAAGGGACAGGGUGAAA [JR_SS002_Sub201]” was tested, and the “apparent KD of MS2 coat protein” value was 30.2 nM.
In the case of “AAAGAAGAAAGACAGGAUAUGGAUGGGUAAACAUGAGGAUCACCCAUGUAUAAGAAAGAAAGAAACCAGAAGGGUCAAAAGAAAA [Darius III]”, the “apparent KD of MS2 coat protein” value is reported as 551 nM.
In the case of “CAGAGACAUGAGGAUCACCCAUGUAGGAUUAUGGGAGGAUAUACAAAGACGAGAGUCAGAGUAGAAGGCCUAGGAC [salish99-ss1-144]”, the “apparent KD of MS2 coat protein” value is reported as 45.6 nM.
In the case of “UACAGACAUGAGGAUCACCCAUGUAGAAUUAUGGGAGGAUAUACAAAGACGAGAGUCAGAGUAGAAGGCCUAGGAG [salish99-ss1-165]”, the “apparent KD of MS2 coat protein” value is reported as 56.9 nM.
“AGAAAACAUGAGGAUCACCCAUGUGACAAUAUGGGAGGAUAUACGAAGACGAAAGUCGAAGUAGAAGGCCUAAAGA [Garnet 50]” was tested, and the “apparent KD of MS2 coat protein” value was 66.7 nM.
In the case of “AGGAAACAUGAGGAUCACCCAUGUAAAAAAUAUGGAGGAUAUACUAGAAGAAACAAAAUAGUAGAAGGCCAAAAAA [75%, Ex sub1, 31]”, the “apparent KD of MS2 coat protein” value is reported as 19.4 nM.
With “AUAUAAAUAAGGUAGGAUAUACUAAAGUAAACAUGAGGAUCACCCAUGUGAAGAAAGAAACUCAUGUAGAAGGACCAUAUAUAUA [viburnum 2]” the “apparent KD of MS2 coat protein” value was 248 nM.
“GUCCAACAUGAGGAUCACCCAUGUGCAUGACACCGAGGAUAUGGGACUAAAGGUGCUGGACCAGAAGGCGGAAGAA [Laceus]” was tested, and the “apparent KD of MS2 coat protein” value was 45.8 nM.
“AAAAAAAAACGUGAGGAUAUGUGAAAAUUAACAUGAGGAUCACCCAUGUGAUAAAAAAAAAAAAAACAGAAGGUACAAAAAAAAAA [Same 2 again I have no idea]” was tested, and the “apparent KD of MS2 coat protein” value was 28.4 nM.
With “AUAAAACAUGAGGAUCACCCAUGUAAAAAAGCAUGAGGAUAUAUAAAAAGAAAAAGAAGAAUAGAAGGCAUAGUAA [JR_SS001_Sub1222]” the “apparent KD of MS2 coat protein” value was 52.1 nM.
“AACAAUCUAUCUGAGGAUAUGUGUCGAAAGACAUGAGGAUCACCCAUGUGAAAACAUGGGAAAACACAGAAGGCAGAUAGAUUGA [SS2: 1152]” was tested, and the “apparent KD of MS2 coat protein” value was 33.2 nM.
